Here are results for six molecules from patent publication CN116199779A (BEIJING DONGFANG BIOTECH CO LTD; BEIJING JINGYI TAIXIANG …, dated 2023).

The target of assay [1] is T1, THP-1细胞表面的LILRB4 (human, UniProt Q8NHJ6 22-448).
T1 construct: whole, on cells; Endogenous LILRB4 on THP-1 cells; also called 人单核细胞白血病细胞(THP-1)表面LILRB4
The experiment in a line: flow cytometry on THP-1 cells.

In another assay the target is T2, LILRB4抗原 (人LILRB4蛋白胞外段) (human, UniProt Q8NHJ6 22-259).
T2 construct: extracellular domain; also called 白细胞免疫球蛋白样受体亚家族B成员4
As to the kind of experiment: ELISA, coated LILRB4, anti-human IgG-HRP.

Assay [2] concerns the target T1, THP-1细胞表面的LILRB4. As to the kind of experiment: cell-based or functional assay.
Assay [3] addresses T1, THP-1细胞表面的LILRB4. As to the kind of experiment: cell-based or functional assay. This is another data set of the same source.
Assay [4] has as its target T1, THP-1细胞表面的LILRB4. As to the kind of experiment: flow cytometry competition on THP-1 cells; competitor FITC-labelled ApoE.

B1: 嵌合抗体CA-Ⅰ (MA-Ⅰ variable regions, human IgG1, Ck) (antibody)
heavy: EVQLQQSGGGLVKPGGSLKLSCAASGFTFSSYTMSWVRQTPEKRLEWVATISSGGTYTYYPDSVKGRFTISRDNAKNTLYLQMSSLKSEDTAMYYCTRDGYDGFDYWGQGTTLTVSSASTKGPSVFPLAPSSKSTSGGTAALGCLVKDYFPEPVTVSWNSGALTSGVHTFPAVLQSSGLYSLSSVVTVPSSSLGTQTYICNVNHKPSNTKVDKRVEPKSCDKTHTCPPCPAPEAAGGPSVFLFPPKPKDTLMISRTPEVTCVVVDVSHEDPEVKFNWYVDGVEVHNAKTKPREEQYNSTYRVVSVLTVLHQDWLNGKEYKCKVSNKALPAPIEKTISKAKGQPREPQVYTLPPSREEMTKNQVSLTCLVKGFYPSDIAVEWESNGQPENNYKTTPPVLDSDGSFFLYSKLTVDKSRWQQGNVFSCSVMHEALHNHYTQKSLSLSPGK
light: DIVMTQTTLSLPVSPGDQASISCRSSQSLAHSNGNTYLHWYLQKPGQSPKLLIYKVSNRFSGVPDRFSGSGSGTDFTLKISRVEAEDLGVYFCSQSTLVPTFGGGTKLEIKRTVAAPSVFIFPPSDEQLKSGTASVVCLLNNFYPREAKVQWKVDNALQSGNSQESVTEQDSKDSTYSLSSTLTLSKADYEKHKVYACEVTHQGLSSPVTKSFNRGEC
notes: also called CA-I
In the case of B1, the EC50 in the assay with THP-1细胞表面的LILRB4 [1] is 0.2 µg/mL; with LILRB4抗原 (人LILRB4蛋白胞外段), 0.0178 µg/mL.

B2: 人源化抗体HA-Ⅱ (human IgG1, Ck) (antibody, V domains shown)
VH: EVQLVESGGGLVKPGGSLRLSCAASGFTFSSYTMSWVRQAPGKGLEWVATISSGGTYTYYPDSVKGRFTISRDNAKNSLYLQMNSLRAEDTAVYYCARDGYDGFDYWGQGTTVTVSS
VL: DIVMTQTPLSLSVTPGQPASISCRSSQSLAHSNGNTYLHWYLQKPGQSPQLLIYKVSNRFSGVPDRFSGSGSGTDFTLKISRVEAEDVGVYFCSQSTHVPTFGGGTKVEIKR
notes: also called HA-II
B2: in the assay with THP-1细胞表面的LILRB4 [2], the “IC50 of inhibition of ARG1 secretion by THP-1 cells with ApoE (arginase activity)” value (“IC50 of inhibition of ARG1 secretion” for short) was found to be 250 µg/mL. Further, in the assay with THP-1细胞表面的LILRB4 [3], the “IC50, NF-κB luciferase reporter in THP-1-NF-κB-Luc cells stimulated with ApoE” value (shortened to “IC50, NF-κB luciferase reporter”) worked out at 2.68 µg/mL. Also, the EC50 came out at 0.179 µg/mL with THP-1细胞表面的LILRB4 [1] and 0.0154 µg/mL with LILRB4抗原 (人LILRB4蛋白胞外段). Also, in the assay with THP-1细胞表面的LILRB4 [4], the IC50 is 2.75 µg/mL.

B3: 人源化抗体HA-Ⅲ (human IgG1, Ck) (antibody, V domains shown)
VH: EVQLVESGGGLVKPGGSLRLSCAASGFTFSSYTMSWVRQAPGKGLEWVATISSGGTYTYYPDSVKGRFTISRDNAKNSLYLQMNSLRAEDTAVYYCTRDGYDGFDYWGQGTTVTVSS
VL: DIVMTQTPLSLSVTPGQPASISCRSSQSLAHSNGNTYLHWYLQKPGQSPKLLIYKVSNRFSGVPDRFSGSGSGTDFTLKISRVEAEDVGVYFCSQSTHVPTFGGGTKVEIKR
notes: also called HA-III
For B3, in the assay with THP-1细胞表面的LILRB4 [2], the “IC50 of inhibition of ARG1 secretion” value is 98.5 µg/mL. Moreover, in the assay with THP-1细胞表面的LILRB4 [3], the “IC50, NF-κB luciferase reporter” value was determined as 3.44 µg/mL. Besides, the EC50 with THP-1细胞表面的LILRB4 [1] was found to be 0.186 µg/mL; with LILRB4抗原 (人LILRB4蛋白胞外段), 0.014 µg/mL. This molecule registered an IC50 with THP-1细胞表面的LILRB4 [4] of 2.56 µg/mL.

B4: 人源化抗体HA-Ⅰ (human IgG1, Ck) (antibody, V domains shown)
VH: EVQLVESGGGLVKPGGSLRLSCAASGFTFSSYTMSWVRQAPGKGLEWVSTISSGGTYTYYPDSVKGRFTISRDNAKNSLYLQMNSLRAEDTAVYYCARDGYDGFDYWGQGTTVTVSS
VL: DIVMTQTPLSLSVTPGQPASISCRSSQSLAHSNGNTYLHWYLQKPGQSPQLLIYKVSNRFSGVPDRFSGSGSGTDFTLKISRVEAEDVGVYYCSQSTHVPTFGGGTKVEIKR
notes: also called HA-I
With B4, the “IC50 of inhibition of ARG1 secretion” value with THP-1细胞表面的LILRB4 [2] is 31.2 µg/mL. In addition, the “IC50, NF-κB luciferase reporter” value with THP-1细胞表面的LILRB4 [3] is 0.756 µg/mL. For the same molecule, the EC50 in the assay with THP-1细胞表面的LILRB4 [1] was 0.181 µg/mL; with LILRB4抗原 (人LILRB4蛋白胞外段), 0.0174 µg/mL. Further, the IC50 in the assay with THP-1细胞表面的LILRB4 [4] is 0.48 µg/mL.

B5: 人源化抗体HB-Ⅰ (human IgG1, Ck) (antibody, V domains shown)
VH: QVQLVQSGAEVKKPGASVKVSCKASGYTFTNYWMHWVRQAPGQGLEWIGEINPSNGRTNYNEKFKTRATLTVDTSTSTAYMELSSLRSEDTAVYYCARWGQLGLREGYYAVDYWGQGTLVTVSS
VL: DIQMTQSPSSLSASVGDRVTITCRASQDISNYLNWYQQKPGKAPKLLIYYTSRLHSGVPSRFSGSGSGTDYTFTISSLQPEDIATYYCQQGNTLPPTFGGGTKVEIKR
notes: also called HB-I
In the assay with LILRB4抗原 (人LILRB4蛋白胞外段), B5 yielded an EC50 of 0.343 µg/mL.

B6: 嵌合抗体CB-Ⅰ (MB-Ⅰ variable regions, human IgG1, Ck) (antibody)
heavy: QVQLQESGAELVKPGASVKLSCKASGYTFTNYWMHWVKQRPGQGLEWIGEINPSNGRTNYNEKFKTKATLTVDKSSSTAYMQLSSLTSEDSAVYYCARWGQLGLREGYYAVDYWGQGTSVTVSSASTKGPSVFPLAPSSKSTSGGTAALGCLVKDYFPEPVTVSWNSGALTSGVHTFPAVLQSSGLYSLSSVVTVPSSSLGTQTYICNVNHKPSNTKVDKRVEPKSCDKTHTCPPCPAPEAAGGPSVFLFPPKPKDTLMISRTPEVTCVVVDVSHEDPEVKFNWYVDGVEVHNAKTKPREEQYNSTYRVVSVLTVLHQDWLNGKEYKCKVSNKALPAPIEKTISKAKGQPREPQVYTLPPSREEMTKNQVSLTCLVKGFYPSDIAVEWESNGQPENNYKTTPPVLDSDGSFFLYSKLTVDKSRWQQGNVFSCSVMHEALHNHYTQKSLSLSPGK
light: DIVMTQSPSSLSASLGDRVTISCRASQDISNYLNWYQQKPDGTVKLLIYYTSRLHSGVPSRFSGSGSGTDYSLTISNLEQEDIATYFCQQGNTLPPTFGGGTKLEIKRTVAAPSVFIFPPSDEQLKSGTASVVCLLNNFYPREAKVQWKVDNALQSGNSQESVTEQDSKDSTYSLSSTLTLSKADYEKHKVYACEVTHQGLSSPVTKSFNRGEC
notes: also called CB-I
B6: the EC50 with THP-1细胞表面的LILRB4 [1] is 0.445 µg/mL; in the assay with LILRB4抗原 (人LILRB4蛋白胞外段), 0.0655 µg/mL.
